Experiment [1] deals with T1, IL-31-CEE: purified, recombinant human IL-31 fused at the C-terminal with a peptide consisting of the … (human, UniProt Q6EBC2 24-164).
T1 sequence: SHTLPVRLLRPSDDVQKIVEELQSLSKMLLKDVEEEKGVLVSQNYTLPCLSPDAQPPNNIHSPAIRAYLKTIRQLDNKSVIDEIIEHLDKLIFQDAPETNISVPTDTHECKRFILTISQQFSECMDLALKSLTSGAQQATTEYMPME
Kind of experiment: cell-based or functional assay.

Experiment [2] addresses T2, mIL31-CEE: purified, recombinant mouse IL-31 (produced in BHK cells) fused at the C-terminus with a peptide … (mouse, UniProt Q6EAL8 31-163).
T2 construct: Biotinylated in the capture ELISA
T2 sequence: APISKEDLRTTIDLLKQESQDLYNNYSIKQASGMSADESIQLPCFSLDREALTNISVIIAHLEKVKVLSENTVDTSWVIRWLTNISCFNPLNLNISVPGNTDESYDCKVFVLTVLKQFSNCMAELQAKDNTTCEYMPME
Nature of the experiment: ELISA on plate bound mIL-31-CEE, first round clone supernatant.

In experiment [3] the target is T3, CEE peptide tag, sequence EYMPME.
T3 construct: Tested only as the C-terminal tag of the other species' IL-31-CEE, not as a free peptide; also called CEE tag
T3 peptide: EYMPME
Nature of the experiment: ELISA on plate bound mIL-31-CEE (tag tested as part of that protein). In general terms: In an ELISA, binding on a coated surface is turned into a signal by an enzyme label.

Experiment [4] addresses T1, IL-31-CEE: purified, recombinant human …. Kind of experiment: capture ELISA: mAb of first round clone supernatant captured on anti-mouse IgG Fc, biotinylated IL-31-CEE. The procedure: These new supernatants were tested using the cell-based neutralization assay (serial 3-fold dilutions starting with neat supernatant and proceeding to a final 1:243 dilution) as well as a “capture” style ELISA assay similar to that used in the development of the rat anti-murine IL-31 mAbs with the following differences; 1) sheep anti-mouse IgG, Fc specific antibody (Jackson Immunoresearch) (1 ug/mL) as plate coating antibody, 2) plates blocked once with PBS-Tween+1% BSA for 1 hr, 3) a single titration of each supernatant added to wells (serial 3-fold dilutions starting with neat supernatant and proceeding to a final 1:2187 dilution), and 4) addition of biotinylated IL-31-CEE (3:1 molar ratio of biotin:protein), 200 ng/mL. This assay was felt to be more pertinent than the binding of antibody to plate bound IL-31-CEE as it assessed the ability of antibody to bind to IL-31-CEE in solution, a property essential to a good antibody for sandwich style ELISAs. It was in fact observed that a number of the master wells supernatants containing antibody that bound well to plate bound IL-31-CEE poorly recognized this molecule in solution.
To reduce the number of hybridomas going into further subcloning, two new assays were performed with exhausted supernatant from each of the selected first round clones. […]

B1: mouse anti-human IL-31 mAb from clone 292.12.3.1 (ATCC Patent Deposit Designation PTA-6815) (antibody, mouse IgG1, V domains shown)
VH: QVQLQQSGAELARPGASVNLSCKASGYTLTRYWMQWVKQRPGQGLEWIGAIYPGDGDTRYSQKFKGKATLTADKSSSTAYMQLNNLASEDSAVYYCAFPDGYYAAPYGMDYWGQGTSVTVSS
VL: DIQMTQSPASLSASVGETVTITCRASGNIHNYLAWYQQKQGKSPQLLVYNAKTLADGVPSRFSGSRSETQYSLKINSLQPEDFGSYYCQHFWSTPWTFGGGTKLEIK
notes: Mouse IgG1, kappa; assays used supernatant of first round clone 292.12.3
With B1, in experiment [1], the “IC50 (ng/mL), cell-based neutralization (luciferase), IL-31-CEE at 300 pg/mL” value (shortened to “IC50 (ng/mL), cell-based neutralization”) was determined as 1.2 ng/mL and the “IC50 (pM), cell-based neutralization (luciferase), IL-31-CEE at 300 pg/mL” value (shortened to “IC50 (pM), cell-based neutralization”) came out at 7.98 pM. For the same molecule, in experiment [2], the binding result is on record as “no binding”. In experiment [3], the binding result is given as “no binding”.

B2: mouse anti-human IL-31 mAb from clone 292.72.3.1 (ATCC Patent Deposit Designation PTA-6816) (antibody, mouse IgG2a, V domains shown)
VH: QVQVQQSGAELARPGASVKLSCKASGYTLTRYWMQWVKQRPGQGLEWIGAIYPRDGDTRYSQKFKGKATLTADKSSTTAYMQLSSLASEDSAVYYCAYPDGSYAAPNGMEYWGQGSSVTVSS
VL: DIQMSQSPASLSASVGETVTITCRASGSIHNYLAWYQQKQGKSPQLLVYNAETLADGVPSRFSGSGSGTQYSLKISSLQPEDFGTYYCQHFWITPWTFGGGTKLEIK
notes: Mouse IgG2a; assays used first round clone 292.72.3
For B2, in experiment [1], the “IC50 (ng/mL), cell-based neutralization” value is 2 ng/mL and the “IC50 (pM), cell-based neutralization” value stood at 13.3 pM. Further, the binding result in experiment [2] was “no binding”. Moreover, the binding result in experiment [3] is “no binding”.

B3: mouse anti-human IL-31 mAb from clone 292.84.1.6 (ATCC Patent Deposit Designation PTA-6871) (antibody, V domains shown)
VH: QVQLQQSGAELARPGASVNLSCKASGYTLTRYWMQWVKQRPGQGLEWIGTIYPGDGDTRYSQKFKGKASLTADKSSNTAYMQLNNLASEDSAVYFCAFPDGYYAAPYGMDYWGQGTSVTVSS
VL: DIQMTQSPASLSASVGETVTITCRASGNIHNYLAWYQQKQGRSPQLLVYNAKTLADGVPSRFSGSRSETQYSLKINSLQPEDFGSYYCQHFWSTPWTFGGGTKLEIK
notes: Mouse IgG2a, kappa; Assays used first round clone 292.84.1
For B3, the “IC50 (ng/mL), cell-based neutralization” value in experiment [1] was 1.08 ng/mL. Moreover, the “IC50 (pM), cell-based neutralization” value in experiment [1] was 7.18 pM. For the same molecule, the binding result in experiment [2] and in experiment [3] was “no binding” throughout.

B4: mouse anti-human IL-31 mAb from clone 294.144.3.5 (ATCC Patent Deposit Designation PTA-6873) (antibody, mouse IgG1, V domains shown)
VH: QVQLQQSGPELMKPGASVKISCKATGYTFSTYWIEWIKQRPGHGLEWIGEILPGRGTTNYNAKFQGKATFTAETSSNTAYMQLSSLTSEDSAVYYCTTESKLGDDDYWQGTTLTVSS
VL: ENVLTQSPAIMSASPGERVTMTCSASSSVSYMHWYQQKSSNSPKLWIYDTTKLASGVPGRFSGSGSGNSYSLTISSMEAEDVATYFCFQGSEHPLTFGGGTTLEI
notes: Mouse IgG1
For the molecule B4, the binding result in experiment [2] and in experiment [3] was “no binding” in each case. For the same molecule, the EC50 (usually the concentration needed to bring the measured effect to its halfway point) in experiment [4] came to 13.4 ng/mL.

B5: mouse anti-human IL-31 mAb from clone 292.51.5.2 (antibody, mouse IgG1, V domains shown)
VH: EVQLVESGGDLVKPGGSLKLSCAASGFTFSSFVMSWVRQSPEKRLEWVATINSGGYYSFHPDSVKGRFTISRDNAKNTLYLQMSSLRSEDTAIYYCARQEGWSSAYFSYWGQGTLVTVSA
VL: DIVMTQSPSSLAMSVGQKVTMICKSSQSLLNSSNQKNYLAWYQQKPGHSPKLLVSFTSTRESGVPDRFIGSGSGTDFTLTITNMQAEDLADYFCQQHYDTPYTFGGGTKLEIR
notes: Mouse IgG1; assays used first round clone 292.51.5
On to B5, for which, in experiment [1], the “IC50 (ng/mL), cell-based neutralization” value is 6.48 ng/mL and the “IC50 (pM), cell-based neutralization” value was 43.2 pM. Also, the binding result in experiment [2] is “no binding”. In experiment [3], the binding result is “no binding”.

B6: mouse anti-human IL-31 mAb from clone 292.105.4.1 (antibody, mouse IgG1, V domains shown)
VH: EVQLVESGGDLVKPGGSLKLSCAASGFTFSTYIMSWVRQSPEKRLEWVATINSGGYYTLYPDSVKGRFTISRDNAKNTLSLQLSSLRSEDTAMYFCARQEGWSSAWFAYWGQGTLVTVSA
VL: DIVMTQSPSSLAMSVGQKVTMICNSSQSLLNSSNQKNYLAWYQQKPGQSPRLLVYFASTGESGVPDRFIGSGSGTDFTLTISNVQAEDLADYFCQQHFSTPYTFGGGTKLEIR
notes: Mouse IgG1; assays used first round clone 292.105.4
On to B6, for which, in experiment [1], the “IC50 (ng/mL), cell-based neutralization” value stood at 9.14 ng/mL and the “IC50 (pM), cell-based neutralization” value turned out to be 61 pM. In addition, the binding result in experiment [2] is recorded as “no binding”. Moreover, the binding result in experiment [3] is recorded as “no binding”.

B7: mouse anti-human IL-31 mAb from clone 292.109.4.4 (antibody, mouse IgG1, V domains shown)
VH: EVQLVESGGDLVKPGGSLKLSCAASGFTFSTYIMSWVRQSPEKRLEWVATINSGGYYTLYPDSVKGRFTISRDNAKNTLSLQLSSLRSEDTAMYFCARQEGWSSAWFAYWGQGTLVTVSA
VL: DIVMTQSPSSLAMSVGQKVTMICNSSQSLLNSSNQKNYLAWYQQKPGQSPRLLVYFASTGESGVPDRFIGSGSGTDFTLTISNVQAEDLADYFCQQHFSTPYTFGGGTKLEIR
notes: Mouse IgG1; assays used first round clone 292.109.4
B7: in experiment [1], the “IC50 (ng/mL), cell-based neutralization” value amounted to 8.29 ng/mL and the “IC50 (pM), cell-based neutralization” value turned out to be 55.2 pM. Further, in experiment [2], the binding result is “no binding”. In experiment [3], the binding result is “no binding”.

B8: mouse anti-human IL-31 mAb from clone 292.39.5.3 (antibody, mouse IgG1, V domains shown)
VH: EVQLVESGGDLVKPGGSLKLSCAASGFTFSTYIMSWVRQSPEKRLEWVATINSGGYYTLYPDSVKGRFTISRDNVKNTLSLQLSSLRSEDTAMYFCARQEGWSSAWFAYWGQGTLVTVSA
VL: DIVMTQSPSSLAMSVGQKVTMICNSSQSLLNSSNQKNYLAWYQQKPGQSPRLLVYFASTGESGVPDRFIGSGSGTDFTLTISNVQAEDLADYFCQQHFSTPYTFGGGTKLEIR
notes: Mouse IgG1; assays used first round clone 292.39.5
With B8, in experiment [1], the “IC50 (ng/mL), cell-based neutralization” value was determined as 8.63 ng/mL. For the same molecule, the “IC50 (pM), cell-based neutralization” value in experiment [1] came to 57.5 pM. In addition, the binding result in experiment [2] and in experiment [3] was “no binding” each time.

B9: mouse anti-human IL-31 mAb from clone 292.118.6.4 (ATCC Patent Deposit Designation PTA-6830) (antibody, mouse IgG1, V domains shown)
VH: EVQLVESGGGLVKPGGSLKLSCAVSGFTFKTYIMSWVRQSPEKRLEWVATINSGGYYTIYPDSVKGRFTISRDNAKNTLYLQMSSLRSEDTAMYYCARQEGWSSAWFAYWGQGTLVTVSA
VL: DIVMTQSPSSLAMSVGQKVTMICNSSQSLLNSSNQKNYLAWYQQRPGQSPRLLVYFASTGESGVPDRFMGSGSGTDFTLTISNVQAEDLADYFCQQHFSTPYTFGGGTKLEIR
notes: Mouse IgG1; assays used first round clone 292.118.6
B9: in experiment [1], the “IC50 (ng/mL), cell-based neutralization” value was 6.55 ng/mL and the “IC50 (pM), cell-based neutralization” value came to 43.7 pM. In experiment [2], the binding result was “no binding”. The binding result in experiment [3] was “no binding”.

B10: mouse anti-human IL-31 mAb from clone 292.64.6.5.5 (antibody, mouse IgG1, V domains shown)
VH: EVQLVESGGDLVKPGGSLKLSCAASGFTFSTYIMSWVRQSPEKRLEWVATINSGGYYTLYPDSVKGRFTISRDNAKNTLSLQLSSLRSEDTAMYFCARQEGWSSAWFAYWGQGTLVTVSA
VL: DIVMTQSPSSLAMSVGQKVTMICNSSQSLLNSSNQKNYLAWYQQKPGQSPRLLIYFASTGESGVPDRFIGSGSGTDFTLTISNVQAEDLADYFCQQHFSTPYTFGGGTKLEIR
notes: Mouse IgG1; assays used first round clone 292.64.6
With B10, in experiment [1], the “IC50 (ng/mL), cell-based neutralization” value was determined as 10.1 ng/mL and the “IC50 (pM), cell-based neutralization” value was 67 pM. The binding result in experiment [2] is given as “no binding”. Moreover, the binding result in experiment [3] is “no binding”. Besides, the EC50 in experiment [4] was 3.4 ng/mL.

The values are drawn from US20090252732A1 (published 2009).
